Data as given in US20140079722A1, “EXTRACELLULAR TARGETED DRUG CONJUGATES” (CENTROSE, LLC, priority 2011, published 2014).

What was measured:
[1] = test system: primary human umbilical artery endothelial cells (HUAEC); assay: In vitro normal cell cytotoxicity; type: cell-based; conditions: HUAEC, 72 hrs; conjugates as antibody concentration; read-out: EC50
Method: (§1) In vitro normal cell cytotoxicity. The in vitro cytotoxic activity of M53-PEG24-CEN09-106, PEG24-CEN09-106, M53-PEG24-CEN-319, PEG24-CEN-319, proscillaridin and digitoxin against dysadherin positive primary normal human cells and a dysadherin positive human non-small cell lung carcinoma (NSCLC) cell line were tested and compared. The cells used were primary human renal epithelial cells (HREpC), primary human umbilical vein endothelial cells (HUVEC), primary human umbilical artery endothelial cells (HUAEC), and the A549 NSCLC cells. The primary cells were obtained from PromoCell GmbH, Heidelberg, Germany, and the NSCLC cell line A549 was obtained from ATCC. Primary renal epithelial cells were grown in Renal Epithelial Cell Growth Medium 2 (PromoCell GmbH, Heidelberg, Germany). Primary endothelial cells were grown in Endothelial Cell Growth Medium 2 (PromoCell GmbH, Heidelberg, Germany). The NSCLC cell line was grown in RPMI-1640 (HyClone, Thermo Scientific) supplemented with 10% fetal bovine serum. HREpC, HUVEC, HUAEC, and A549 cells were plated in 384 well plates at 1250, 1875, 2500, and 1250 cells/well (respectively) and allowed to incubate for 24 hrs at 37° C., 5% CO2, and 100% humidity. Various concentrations of conjugates M53-PEG24-CEN09-106 and […] and PEG24-CEN09-106 and […] were added to the wells in a total volume of 5 uL of media and the plates were incubated for an additional 72 hrs. After 72 hrs of exposure to agent, cell viability was evaluated using the Cell Titer-Glo Luminescent Cell Viability Assay (Promega, Madison, Wis.) according to the manufacturer's instructions. Luminescence measurements were performed using a Wallac Victor^2 Model 1420-041 assay plate reader (Perkin Elmer, Gaithersburg, Md.). EC50 values for each test agent were determined using GraphPad Prism 5 software.

[2] = test system: primary human umbilical vein endothelial cells (HUVEC); assay: In vitro normal cell cytotoxicity; type: cell-based; conditions: 72 hrs, conjugates as antibody concentration, read-out: EC50
Method: as §1

B1: M53-PEG24-CEN09-106: Class 1 EDC: antibody M53 conjugated to linker-ready agent PEG24-CEN09-106 (scillarenin, 4-amino-xyloside, PEG24) (conjugate)
heavy: EVQLVESGGGLVQPKGTLKLSCAASGFSFNTHAMNWVRQAPGKSLEWVARTMSKSNNYATYYADSVKDRFIIRADDSQSMLYLQMNNLKTEDTAMYYCVRDDPKRGMDYWGQGTSVTVSSAKTTPPSVYPLAPGSAAQTNSMVTLGCLVKGYFPEPVTVTWNSGSLSSGVHTFPAVLQSDLYTLSSSVTVPSSTWPSETVTCNVAHPASSTKVDKKIE
light: GIVMSQSPSSLAVSVGEKVTMSCKPSQSLLYSRNQKIYLAWYQQKPGQSPKLLIYWASTRESGVPDRFTGSGSGTDFTLIISSVRAEDLAVYYCQQYYNYPLTFGAGTKLELKRADAAPTVSIFPPSSEQLTSGGASVVCFLNNFYPKDINVKWKIDGSERQNGVLNSWTDQDSKDSTYSMSSTLTLTKDEYERHNSYTCEATHKTSTSPIVKSFNR
Molecule B1 has an EC50 [1] of 29 nM and an EC50 [2] of 30 nM.
